From the supplement of paper PMC11865577

These sequences were tested on TO-N3 (biotin conjugate) (assay: pull-down binding Z-score (relative to library population); higher = stronger binding). Settings: RNA library: Library-2.
Outline: (§1)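 An RNA library (1 μg) carrying a Cy5 or Cy3 end label was heat-folded in phosphate/NaCl/KCl buffer, then incubated for 60 min at 25 °C with streptavidin beads loaded with 100 pmol of biotin-conjugated small molecule. The beads were washed three times, and bound RNA was released in hot SDS and hybridised to a DNA barcode microarray for 20 h at 55.5 °C. Each binding score was derived by subtracting the signal from beads without compound, averaging the barcoded replicate probes after removing the highest and lowest, and expressing the result as a Z-score relative to the library mean and standard deviation.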
In the case of UAAUCAGACAAGGAACUGAUUA, the “pull-down binding Z-score” value is reported as -0.836. With “UAAUGGUUUAACUUCUAUUA [DMSMaPseq_invitro_SARS-CoV-2_Motif_100]” the “pull-down binding Z-score” value was -1.33. With “UAAUUAUAAAUUACCAGAUGAUUUUACAGGCUGCGUUAUAGCUUGGAAUUCUAACAAUCUUGAUUCUAAGGUUGGUGGUAAUUAUAAUUA” the “pull-down binding Z-score” value was -0.838. In the case of “UAAUUCUUGGCUUAUGUGGUUAAUAAUUA [DMSMaPseq_invitro_SARS-CoV-2_Motif_139]”, the “pull-down binding Z-score” value is reported as -0.293. For “UACAAACUUGUG [DMSMaPseq_invitro_SARS-CoV-2_Motif_398]”, the “pull-down binding Z-score” value was -1.02. In the case of UACAAUUUGCCUAUGCCAACAGGAAUAGGUUUUUGUA, the “pull-down binding Z-score” value is reported as -0.122. In the case of “UACAUGUGUUGGUAGCGAUAAUGUUACUGACUUUAAUGCAAUUGCAACAUGUG [DMSMaPseq_invitro_SARS-CoV-2_Multi_49_ComplexLevel_1]”, the “pull-down binding Z-score” value is reported as -0.826. In the case of “UACCAGACUAUAACACAUAUAAAAAUACGUGUGAUGGUA [DMSMaPseq_invitro_SARS-CoV-2_Motif_221]”, the “pull-down binding Z-score” value is reported as -1.03. For “UACCAGCUGUACUCAACUCAAUUGAGUACAGACACUGGUG [DMSMaPseq_invitro_SARS-CoV-2_Motif_468]”, the “pull-down binding Z-score” value was -1.16. For UACCAUUUAAUGAUGGUG, the “pull-down binding Z-score” value was -0.0588. For “UACCGAUGCCAUAGAGGUG [IAV_invivo_PB1_2_Motif_30+IAV_invivo_PB1_2_Motif_30]”, the “pull-down binding Z-score” value was -0.0495. In the case of UACCUUUUGCUAUGGGUA, the “pull-down binding Z-score” value is reported as -0.582. In the case of “UACUAAUAUGUUUACACCACUAAUUCAACCUAUUGGUGCUUUGGACAUAUCAGCAUCUAUAGUAGCUGGUGGUAUUGUAGCUAUCGUAGUA [SHAPE_invivo_SARS-CoV-2_Motif_188]”, the “pull-down binding Z-score” value is reported as 0.303. In the case of “UACUGGUUCUAUACCUUGUA [SARS-CoV-2-Conserved-Structured-4_Interval-7011-7130_Motif_3]”, the “pull-down binding Z-score” value is reported as -0.0242. With “UACUUUACUCAGAGUA [SHAPE_invitro_SARS-CoV-2_Motif_368]” the “pull-down binding Z-score” value was -1.58. “UAGAAUAGACGGUGACAUGGUACCACAUAUAUCACGUCAACGUCUUACUA [SHAPE_invivo_SARS-CoV-2_Motif_261]” was tested, and the “pull-down binding Z-score” value was -0.562. “UAGACAAUUCUAGUCUUACUAUUAAGAAACCUAAUGAAUUAUCUA [SHAPE_invivo_SARS-CoV-2_Motif_135]” was tested, and the “pull-down binding Z-score” value was -1.27. For “UAGAGAAAACAACAGAGUUGUUAUUUCUAGUGAUGUUCUUGUUAACAACUAAACGAACAAUGUUUGUUUUUCUUGUUUUAUUGCCACUAGUCUCUA [SHAPE_invitro_SARS-CoV-2_Multi_58_ComplexLevel_1]”, the “pull-down binding Z-score” value was -0.976. UAGAGGUACAACAGUACUUUUA was tested, and the “pull-down binding Z-score” value was -1.12. With “UAGAGUGCUAUCUA [SHAPE_invitro_SARS-CoV-2_Motif_352]” the “pull-down binding Z-score” value was -0.957. In the case of “UAGAUGCUGUAAAUUUACUUACUAAUAUGUUUACACCACUAAUUCAACCUAUUGGUGCUUUGGACAUAUCAGCAUCUA [DMSMaPseq_invitro_SARS-CoV-2_Multi_30_ComplexLevel_1]”, the “pull-down binding Z-score” value is reported as 0.0803. In the case of UAGCGUGCCUUUGUAAGCACAAGCUG, the “pull-down binding Z-score” value is reported as 0.57. For “UAGCUGGUUUUGCUA [SHAPE_invivo_SARS-CoV-2_Motif_257]”, the “pull-down binding Z-score” value was 0.281. In the case of “UAGCUGUACCCUAUAAUAUGAGAGUUAUACAUUUUGGUGCUGGUUCUGAUAAAGGAGUUGCACCAGGUACAGCUG”, the “pull-down binding Z-score” value is reported as -0.515. For “UAGCUUGUUUUGUGCUUGCUG [SHAPE_invivo_SARS-CoV-2_Motif_507]”, the “pull-down binding Z-score” value was -0.0778. In the case of UAGGCACGGCACUUGUGAAAGAUCAGAAGCUGGUGUUUG, the “pull-down binding Z-score” value is reported as 0.0405.

These sequences were tested on TO-3-N3 (biotin conjugate) in the same assay as above. Settings: RNA library: Library-2.
Outline: as §1
For UAAUCAGACAAGGAACUGAUUA, the “pull-down binding Z-score” value was -0.426. For “UAAUGGUUUAACUUCUAUUA [DMSMaPseq_invitro_SARS-CoV-2_Motif_100]”, the “pull-down binding Z-score” value was -0.945. For “UAAUUAUAAAUUACCAGAUGAUUUUACAGGCUGCGUUAUAGCUUGGAAUUCUAACAAUCUUGAUUCUAAGGUUGGUGGUAAUUAUAAUUA”, the “pull-down binding Z-score” value was -0.486. With “UAAUUCUUGGCUUAUGUGGUUAAUAAUUA [DMSMaPseq_invitro_SARS-CoV-2_Motif_139]” the “pull-down binding Z-score” value was -0.0604. With “UACAAACUUGUG [DMSMaPseq_invitro_SARS-CoV-2_Motif_398]” the “pull-down binding Z-score” value was -0.625. In the case of UACAAUUUGCCUAUGCCAACAGGAAUAGGUUUUUGUA, the “pull-down binding Z-score” value is reported as 0.38. “UACAUGUGUUGGUAGCGAUAAUGUUACUGACUUUAAUGCAAUUGCAACAUGUG [DMSMaPseq_invitro_SARS-CoV-2_Multi_49_ComplexLevel_1]” was tested, and the “pull-down binding Z-score” value was -0.662. With “UACCAGACUAUAACACAUAUAAAAAUACGUGUGAUGGUA [DMSMaPseq_invitro_SARS-CoV-2_Motif_221]” the “pull-down binding Z-score” value was -0.929. With “UACCAGCUGUACUCAACUCAAUUGAGUACAGACACUGGUG [DMSMaPseq_invitro_SARS-CoV-2_Motif_468]” the “pull-down binding Z-score” value was -0.751. For UACCAUUUAAUGAUGGUG, the “pull-down binding Z-score” value was 0.115. For “UACCGAUGCCAUAGAGGUG [IAV_invivo_PB1_2_Motif_30+IAV_invivo_PB1_2_Motif_30]”, the “pull-down binding Z-score” value was -0.183. With UACCUUUUGCUAUGGGUA the “pull-down binding Z-score” value was -0.317. For “UACUAAUAUGUUUACACCACUAAUUCAACCUAUUGGUGCUUUGGACAUAUCAGCAUCUAUAGUAGCUGGUGGUAUUGUAGCUAUCGUAGUA [SHAPE_invivo_SARS-CoV-2_Motif_188]”, the “pull-down binding Z-score” value was 0.0327. With “UACUGGUUCUAUACCUUGUA [SARS-CoV-2-Conserved-Structured-4_Interval-7011-7130_Motif_3]” the “pull-down binding Z-score” value was 0.217. In the case of “UACUUUACUCAGAGUA [SHAPE_invitro_SARS-CoV-2_Motif_368]”, the “pull-down binding Z-score” value is reported as -1.06. With “UAGAAUAGACGGUGACAUGGUACCACAUAUAUCACGUCAACGUCUUACUA [SHAPE_invivo_SARS-CoV-2_Motif_261]” the “pull-down binding Z-score” value was -0.605. For “UAGACAAUUCUAGUCUUACUAUUAAGAAACCUAAUGAAUUAUCUA [SHAPE_invivo_SARS-CoV-2_Motif_135]”, the “pull-down binding Z-score” value was -1.02. “UAGAGAAAACAACAGAGUUGUUAUUUCUAGUGAUGUUCUUGUUAACAACUAAACGAACAAUGUUUGUUUUUCUUGUUUUAUUGCCACUAGUCUCUA [SHAPE_invitro_SARS-CoV-2_Multi_58_ComplexLevel_1]” was tested, and the “pull-down binding Z-score” value was -0.989. With UAGAGGUACAACAGUACUUUUA the “pull-down binding Z-score” value was -0.813. In the case of “UAGAGUGCUAUCUA [SHAPE_invitro_SARS-CoV-2_Motif_352]”, the “pull-down binding Z-score” value is reported as -0.809. With “UAGAUGCUGUAAAUUUACUUACUAAUAUGUUUACACCACUAAUUCAACCUAUUGGUGCUUUGGACAUAUCAGCAUCUA [DMSMaPseq_invitro_SARS-CoV-2_Multi_30_ComplexLevel_1]” the “pull-down binding Z-score” value was 0.39. For UAGCGUGCCUUUGUAAGCACAAGCUG, the “pull-down binding Z-score” value was 0.532. With “UAGCUGGUUUUGCUA [SHAPE_invivo_SARS-CoV-2_Motif_257]” the “pull-down binding Z-score” value was 0.71. In the case of “UAGCUGUACCCUAUAAUAUGAGAGUUAUACAUUUUGGUGCUGGUUCUGAUAAAGGAGUUGCACCAGGUACAGCUG”, the “pull-down binding Z-score” value is reported as -0.371. For “UAGCUUGUUUUGUGCUUGCUG [SHAPE_invivo_SARS-CoV-2_Motif_507]”, the “pull-down binding Z-score” value was 0.134. In the case of UAGGCACGGCACUUGUGAAAGAUCAGAAGCUGGUGUUUG, the “pull-down binding Z-score” value is reported as -0.0752.
